The numbers were not newly measured in article PMC9884707, which cites them from elsewhere.

The series concerns the target SHARPIN PH domain (20-121) (Homo sapiens) (UniProt Q9H0F6).

For “SHARPIN PH domain (20-121) (from UniProt Q9H0F6)”, the dissociation constant Kd is 124 µM.
